The text below walks through data of patent US20210230279A1 (University of California, published 2021).

In test [1] the target is T1, recombinant human integrin αvβ8 (human, UniProt P06756 31-992; P26012 43-684).
T1 construct: also called Human Integrin alpha V beta 8; purified recombinant αvβ8
The test can be described thus: ELISA on coated recombinant human integrin; 0 = no apparent binding.
Excerpt: (§1) Binding was quantified by intensity as 0-4 (0 representing no apparent binding; 4 representing robust binding) and results normalized to expression.

Test [2] has as its target T2, recombinant human integrin αvβ1 (human, UniProt P05556 21-728).
T2 construct: Bought; also called αvβ1 (R&D systems)
The test is described as above.
Excerpt: as §1

Test [3] concerns the target T3, recombinant human integrin αvβ3 (human, UniProt P05106 27-718).
T3 construct: Bought; also called αvβ3 (R&D systems)
The test is described as above.
Excerpt: as §1

The target in test [4] is T4, recombinant human integrin αvβ5 (human, UniProt P18084 24-719).
T4 construct: Bought; also called αvβ5 (R&D systems)
T4 sequence (chain, as listed by the source limits assumed, chain 1 of 2): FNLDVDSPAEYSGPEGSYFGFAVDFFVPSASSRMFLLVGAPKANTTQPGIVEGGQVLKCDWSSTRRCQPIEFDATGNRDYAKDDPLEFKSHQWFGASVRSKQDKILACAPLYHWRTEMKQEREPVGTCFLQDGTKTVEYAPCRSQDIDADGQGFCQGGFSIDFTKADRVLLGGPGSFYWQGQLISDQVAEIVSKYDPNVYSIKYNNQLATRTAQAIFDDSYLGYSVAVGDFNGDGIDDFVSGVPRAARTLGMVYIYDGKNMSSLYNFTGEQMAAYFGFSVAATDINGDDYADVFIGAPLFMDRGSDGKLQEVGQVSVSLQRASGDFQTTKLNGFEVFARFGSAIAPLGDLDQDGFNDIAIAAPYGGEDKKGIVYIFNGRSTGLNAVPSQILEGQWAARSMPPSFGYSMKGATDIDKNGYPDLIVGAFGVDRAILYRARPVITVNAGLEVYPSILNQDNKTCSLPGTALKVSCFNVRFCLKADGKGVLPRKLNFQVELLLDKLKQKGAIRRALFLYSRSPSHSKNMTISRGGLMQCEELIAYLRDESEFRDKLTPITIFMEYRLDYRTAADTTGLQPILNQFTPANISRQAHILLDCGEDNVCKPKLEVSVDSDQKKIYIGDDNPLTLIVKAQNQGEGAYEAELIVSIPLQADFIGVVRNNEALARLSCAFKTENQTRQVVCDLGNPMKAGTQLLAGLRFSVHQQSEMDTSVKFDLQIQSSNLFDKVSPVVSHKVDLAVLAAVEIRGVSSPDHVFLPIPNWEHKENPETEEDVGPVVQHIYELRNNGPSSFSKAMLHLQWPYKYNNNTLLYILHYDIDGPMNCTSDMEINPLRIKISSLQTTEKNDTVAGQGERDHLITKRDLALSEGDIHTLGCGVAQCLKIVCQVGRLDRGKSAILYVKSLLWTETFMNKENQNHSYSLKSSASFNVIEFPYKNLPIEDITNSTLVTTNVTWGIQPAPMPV
T4 sequence (P18084 24-719 limits assumed, chain 2 of 2): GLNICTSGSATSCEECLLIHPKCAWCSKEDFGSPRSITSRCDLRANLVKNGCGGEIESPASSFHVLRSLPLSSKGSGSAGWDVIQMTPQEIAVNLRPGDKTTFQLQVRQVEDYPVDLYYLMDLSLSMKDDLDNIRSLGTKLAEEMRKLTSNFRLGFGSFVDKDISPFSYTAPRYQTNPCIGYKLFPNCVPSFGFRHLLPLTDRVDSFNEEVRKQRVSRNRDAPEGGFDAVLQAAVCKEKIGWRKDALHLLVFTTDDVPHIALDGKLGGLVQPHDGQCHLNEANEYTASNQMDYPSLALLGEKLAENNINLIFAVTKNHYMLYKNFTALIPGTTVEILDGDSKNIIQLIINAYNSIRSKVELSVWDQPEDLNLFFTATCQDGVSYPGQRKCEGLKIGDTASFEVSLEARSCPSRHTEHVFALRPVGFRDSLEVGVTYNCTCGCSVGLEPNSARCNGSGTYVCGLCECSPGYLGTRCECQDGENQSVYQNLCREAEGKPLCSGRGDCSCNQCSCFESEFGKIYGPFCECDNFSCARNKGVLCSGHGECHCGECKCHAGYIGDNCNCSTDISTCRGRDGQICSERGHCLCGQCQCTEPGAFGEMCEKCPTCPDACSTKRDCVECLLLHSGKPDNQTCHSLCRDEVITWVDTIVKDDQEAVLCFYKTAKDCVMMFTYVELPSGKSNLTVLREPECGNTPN
The description is as above.
Excerpt: as §1

For test [5], the target named is T5, recombinant human integrin αvβ6 (human, UniProt P18564 22-707).
T5 construct: also called αvβ6 (R&D systems); αvβ6 receptor
T5 sequence (chain, as listed by the source limits assumed, chain 1 of 2): as the sequence (chain, as listed by the source limits assumed, chain 1 of 2) above
T5 sequence (P18564 22-707 limits assumed, chain 2 of 2): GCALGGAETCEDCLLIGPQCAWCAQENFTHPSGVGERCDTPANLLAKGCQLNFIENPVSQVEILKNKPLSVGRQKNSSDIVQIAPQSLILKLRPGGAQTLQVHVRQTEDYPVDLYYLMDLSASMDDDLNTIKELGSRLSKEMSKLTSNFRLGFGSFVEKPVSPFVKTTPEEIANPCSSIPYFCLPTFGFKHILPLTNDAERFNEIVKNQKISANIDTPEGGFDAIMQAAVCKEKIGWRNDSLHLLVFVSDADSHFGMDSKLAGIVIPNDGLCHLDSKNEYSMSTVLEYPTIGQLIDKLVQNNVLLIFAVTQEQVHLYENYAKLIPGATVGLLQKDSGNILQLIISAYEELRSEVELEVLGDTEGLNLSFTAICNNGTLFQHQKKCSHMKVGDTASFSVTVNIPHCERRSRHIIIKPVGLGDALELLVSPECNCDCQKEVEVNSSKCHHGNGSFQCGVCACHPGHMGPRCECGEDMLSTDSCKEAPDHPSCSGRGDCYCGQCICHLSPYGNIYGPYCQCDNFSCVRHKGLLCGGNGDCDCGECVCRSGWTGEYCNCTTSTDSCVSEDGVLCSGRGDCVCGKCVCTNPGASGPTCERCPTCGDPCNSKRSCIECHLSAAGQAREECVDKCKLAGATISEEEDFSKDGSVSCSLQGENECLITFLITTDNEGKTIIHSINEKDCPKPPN
The test can be described thus: ELISA: integrin coated on plate, supernatant of transfected 293 cells at 1/10 dilution, anti-mouse IgG-HRP; score normalized to expression.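 Note: scale runs from 0 (no apparent binding) to 4 (robust binding), with scores adjusted for clone protein expression as determined by a murine IgG ELISA.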 On the technique in general: In an ELISA, binding on a coated surface is turned into a signal by an enzyme label.
Excerpt: as §1

For test [6], the target named is T1, recombinant human integrin αvβ8. The description is as above.
Excerpt: as §1
The target in test [7] is T3, recombinant human integrin αvβ3. Described as above.
Excerpt: as §1

T2 sequence (chain, as listed by the source limits assumed, chain 1 of 2): as the sequence (chain, as listed by the source limits assumed, chain 1 of 2) above
T2 sequence (P05556 21-728 limits assumed, chain 2 of 2): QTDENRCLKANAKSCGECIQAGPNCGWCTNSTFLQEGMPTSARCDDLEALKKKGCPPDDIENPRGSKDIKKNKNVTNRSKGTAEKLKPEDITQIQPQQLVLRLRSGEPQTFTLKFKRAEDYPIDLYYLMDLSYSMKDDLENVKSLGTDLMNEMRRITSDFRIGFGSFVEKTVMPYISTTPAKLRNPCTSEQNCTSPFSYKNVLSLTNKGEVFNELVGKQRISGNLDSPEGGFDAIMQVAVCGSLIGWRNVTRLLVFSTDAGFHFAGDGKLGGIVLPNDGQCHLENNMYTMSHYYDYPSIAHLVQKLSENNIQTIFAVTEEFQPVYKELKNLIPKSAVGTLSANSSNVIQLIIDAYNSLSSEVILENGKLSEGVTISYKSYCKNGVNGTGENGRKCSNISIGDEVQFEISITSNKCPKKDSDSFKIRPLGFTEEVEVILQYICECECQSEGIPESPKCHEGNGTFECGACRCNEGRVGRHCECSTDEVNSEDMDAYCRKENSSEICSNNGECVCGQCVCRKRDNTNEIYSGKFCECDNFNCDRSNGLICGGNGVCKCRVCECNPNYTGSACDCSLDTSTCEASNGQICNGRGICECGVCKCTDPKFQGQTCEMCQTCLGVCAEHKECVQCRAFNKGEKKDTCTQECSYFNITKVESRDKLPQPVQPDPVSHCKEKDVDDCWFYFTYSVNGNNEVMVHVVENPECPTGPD
T1 sequence (P06756 31-992 limits assumed, chain 1 of 2): as the sequence (chain, as listed by the source limits assumed, chain 1 of 2) above
T1 sequence (P26012 43-684 limits assumed, chain 2 of 2): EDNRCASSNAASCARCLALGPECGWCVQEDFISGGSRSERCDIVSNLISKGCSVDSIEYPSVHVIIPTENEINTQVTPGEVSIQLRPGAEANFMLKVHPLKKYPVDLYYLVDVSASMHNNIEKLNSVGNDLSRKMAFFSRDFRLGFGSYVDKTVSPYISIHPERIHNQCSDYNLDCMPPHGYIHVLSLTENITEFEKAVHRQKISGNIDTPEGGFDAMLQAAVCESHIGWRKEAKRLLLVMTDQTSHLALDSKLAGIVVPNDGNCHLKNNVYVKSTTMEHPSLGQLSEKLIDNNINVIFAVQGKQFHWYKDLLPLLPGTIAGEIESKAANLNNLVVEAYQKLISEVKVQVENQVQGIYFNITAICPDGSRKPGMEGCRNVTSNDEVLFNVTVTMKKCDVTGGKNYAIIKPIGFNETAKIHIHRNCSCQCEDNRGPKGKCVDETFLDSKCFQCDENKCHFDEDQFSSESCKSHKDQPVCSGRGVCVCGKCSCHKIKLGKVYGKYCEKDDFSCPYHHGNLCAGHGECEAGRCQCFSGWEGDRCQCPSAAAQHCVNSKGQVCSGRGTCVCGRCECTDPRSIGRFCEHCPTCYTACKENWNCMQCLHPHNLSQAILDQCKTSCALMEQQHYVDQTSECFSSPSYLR
T3 sequence (chain, as listed by the source limits assumed, chain 1 of 2): as the sequence (chain, as listed by the source limits assumed, chain 1 of 2) above
T3 sequence (P05106 27-718 limits assumed, chain 2 of 2): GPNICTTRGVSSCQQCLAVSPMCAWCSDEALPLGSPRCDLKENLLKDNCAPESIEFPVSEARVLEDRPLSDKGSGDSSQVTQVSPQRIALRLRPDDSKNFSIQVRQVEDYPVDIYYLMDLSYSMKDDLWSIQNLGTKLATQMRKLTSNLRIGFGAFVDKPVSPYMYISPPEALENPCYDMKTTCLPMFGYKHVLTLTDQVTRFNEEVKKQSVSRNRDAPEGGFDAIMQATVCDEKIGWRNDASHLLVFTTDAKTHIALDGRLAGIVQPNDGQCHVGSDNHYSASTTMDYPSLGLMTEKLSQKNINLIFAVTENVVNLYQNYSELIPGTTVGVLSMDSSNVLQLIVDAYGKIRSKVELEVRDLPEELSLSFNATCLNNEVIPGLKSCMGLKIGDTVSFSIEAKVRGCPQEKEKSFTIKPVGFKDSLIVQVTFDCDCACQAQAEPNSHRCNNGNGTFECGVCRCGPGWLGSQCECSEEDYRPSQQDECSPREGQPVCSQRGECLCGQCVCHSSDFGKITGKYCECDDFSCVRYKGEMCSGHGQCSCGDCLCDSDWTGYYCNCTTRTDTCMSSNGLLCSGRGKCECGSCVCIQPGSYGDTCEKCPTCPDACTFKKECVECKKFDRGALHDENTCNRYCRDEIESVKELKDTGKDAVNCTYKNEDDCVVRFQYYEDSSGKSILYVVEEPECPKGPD

B1: C6 VH / RGD3-10 Vk murine IgG (antibody, V domains shown)
VH: QIQLLQSGPELKKPGETVKISCKASGYTFTDYSMHWVKQAPGKGLKWVARINTETGEPTFADDFRGRFAVSLETSASTAYLQINNLKNEDTATYFCAIFYYGRDSWGQGTTLTVSS
VL: DIVMTQSPSSLAVSAGEKVTMSCKSSQSLLGRGDLGRLKKQKDHWYQQKPGQSPRLLIYWASTRESGVPDRFTGSGSGTDFTLTISSVQAEDLAVYYCKQSYNLLSFGAGTKLELKR
notes: Murine IgG, supernatant of 293 cells; CDRL1 swap into the C6D4 murine IgG vector, VH not altered; also called C6RGD3-10
As to B1, the binding result in test [1], in test [2], in test [3] and in test [4] was “no binding (tested: supernatant at 1/10 dilution)” each time. The “binding intensity score (0-4)” value in test [5] was determined as 1 score 0-4.

B2: C6 VH / RGD3-6 Vk murine IgG (antibody, V domains shown)
VH: QIQLLQSGPELKKPGETVKISCKASGYTFTDYSMHWVKQAPGKGLKWVARINTETGEPTFADDFRGRFAVSLETSASTAYLQINNLKNEDTATYFCAIFYYGRDSWGQGTTLTVSS
VL: DIVMTQSPSSLAVSAGEKVTMSCKSSQSLLGRGDLGRLKNALAWYQQKPGQSPRLLIYWASTRESGVPDRFTGSGSGTDFTLTISSVQAEDLAVYYCKQSYNLLSFGAGTKLELKR
notes: Murine IgG, supernatant of 293 cells; CDRL1 swap into the C6D4 murine IgG vector, VH not altered; also called C6RGD3-6
Regarding B2, the binding result in test [2], in test [3] and in test [4] was “no binding (tested: supernatant at 1/10 dilution)” each time. Further, the “binding intensity score (0-4)” value in test [6] and in test [5] was 4 score 0-4 in each case.

B3: C6 VH / RGD3-4 Vk murine IgG (antibody, V domains shown)
VH: QIQLLQSGPELKKPGETVKISCKASGYTFTDYSMHWVKQAPGKGLKWVARINTETGEPTFADDFRGRFAVSLETSASTAYLQINNLKNEDTATYFCAIFYYGRDSWGQGTTLTVSS
VL: DIVMTQSPSSLAVSAGEKVTMSCKSSQSLLGRGDLGRLKKQNALAWYQQKPGQSPRLLIYWASTRESGVPDRFTGSGSGTDFTLTISSVQAEDLAVYYCKQSYNLLSFGAGTKLELKR
notes: Murine IgG, supernatant of 293 cells; CDRL1 swap into the C6D4 murine IgG vector, VH not altered; also called C6RGD3-4
Consider B3, for which the binding result in test [2], in test [3] and in test [4] was “no binding (tested: supernatant at 1/10 dilution)” in each case. The “binding intensity score (0-4)” value in test [6] and in test [5] was 4 score 0-4 each time.

B4: C6 VH / RGD3-8 Vk murine IgG (antibody, V domains shown)
VH: QIQLLQSGPELKKPGETVKISCKASGYTFTDYSMHWVKQAPGKGLKWVARINTETGEPTFADDFRGRFAVSLETSASTAYLQINNLKNEDTATYFCAIFYYGRDSWGQGTTLTVSS
VL: DIVMTQSPSSLAVSAGEKVTMSCKSSQSLLGRGDLGRNALAWYQQKPGQSPRLLIYWASTRESGVPDRFTGSGSGTDFTLTISSVQAEDLAVYYCKQSYNLLSFGAGTKLELKR
notes: Murine IgG, supernatant of 293 cells; CDRL1 swap into the C6D4 murine IgG vector, VH not altered; also called C6RGD3-8
With B4, the binding result in test [2] and in test [4] was “no binding (tested: supernatant at 1/10 dilution)” in each case. Besides, the “binding intensity score (0-4)” value in test [6], in test [5] and in test [7] was 3 score 0-4 each time.

B5: C6 VH / RGD3-3 Vk murine IgG (antibody, V domains shown)
VH: QIQLLQSGPELKKPGETVKISCKASGYTFTDYSMHWVKQAPGKGLKWVARINTETGEPTFADDFRGRFAVSLETSASTAYLQINNLKNEDTATYFCAIFYYGRDSWGQGTTLTVSS
VL: DIVMTQSPSSLAVSAGEKVTMSCKSSQSLLGRGDLGRLKKQKNALAWYQQKPGQSPRLLIYWASTRESGVPDRFTGSGSGTDFTLTISSVQAEDLAVYYCKQSYNLLSFGAGTKLELKR
notes: Murine IgG, supernatant of 293 cells; CDRL1 swap into the C6D4 murine IgG vector, VH not altered; also called C6RGD3-3
On to B5, for which the binding result in test [2], in test [3] and in test [4] was “no binding (tested: supernatant at 1/10 dilution)” throughout. For the same molecule, the “binding intensity score (0-4)” value in test [6] and in test [5] was 4 score 0-4 throughout.

B6: C6 VH / RGD3-1 Vk murine IgG (antibody, V domains shown)
VH: QIQLLQSGPELKKPGETVKISCKASGYTFTDYSMHWVKQAPGKGLKWVARINTETGEPTFADDFRGRFAVSLETSASTAYLQINNLKNEDTATYFCAIFYYGRDSWGQGTTLTVSS
VL: DIVMTQSPSSLAVSAGEKVTMSCKSSQSLLGRGDLGRLKKQKDHNALAWYQQKPGQSPRLLIYWASTRESGVPDRFTGSGSGTDFTLTISSVQAEDLAVYYCKQSYNLLSFGAGTKLELKR
notes: Murine IgG, supernatant of 293 cells; CDRL1 swap into the C6D4 murine IgG vector, VH not altered; also called C6RGD3-1
Turning to B6, the binding result in test [2], in test [3] and in test [4] was “no binding (tested: supernatant at 1/10 dilution)” each time. The “binding intensity score (0-4)” value in test [6] worked out at 1 score 0-4; in test [5], 4 score 0-4.

B7: C6 VH / RGD3-7 Vk murine IgG (antibody, V domains shown)
VH: QIQLLQSGPELKKPGETVKISCKASGYTFTDYSMHWVKQAPGKGLKWVARINTETGEPTFADDFRGRFAVSLETSASTAYLQINNLKNEDTATYFCAIFYYGRDSWGQGTTLTVSS
VL: DIVMTQSPSSLAVSAGEKVTMSCKSSQSLLGRGDLGRLNALAWYQQKPGQSPRLLIYWASTRESGVPDRFTGSGSGTDFTLTISSVQAEDLAVYYCKQSYNLLSFGAGTKLELKR
notes: Murine IgG, supernatant of 293 cells; CDRL1 swap into the C6D4 murine IgG vector, VH not altered; also called C6RGD3-7
As for B7, the binding result in test [2] and in test [4] was “no binding (tested: supernatant at 1/10 dilution)” in each case. The “binding intensity score (0-4)” value came out at 2 score 0-4 in test [6], 2 score 0-4 in test [5] and 4 score 0-4 in test [7].

B8: C6 VH / RGD3-2 Vk murine IgG (antibody, V domains shown)
VH: QIQLLQSGPELKKPGETVKISCKASGYTFTDYSMHWVKQAPGKGLKWVARINTETGEPTFADDFRGRFAVSLETSASTAYLQINNLKNEDTATYFCAIFYYGRDSWGQGTTLTVSS
VL: DIVMTQSPSSLAVSAGEKVTMSCKSSQSLLGRGDLGRLKKQKDNALAWYQQKPGQSPRLLIYWASTRESGVPDRFTGSGSGTDFTLTISSVQAEDLAVYYCKQSYNLLSFGAGTKLELKR
notes: Murine IgG, supernatant of 293 cells; CDRL1 swap into the C6D4 murine IgG vector, VH not altered; also called C6RGD3-2
On to B8, for which the binding result in test [2], in test [3] and in test [4] was “no binding (tested: supernatant at 1/10 dilution)” each time. The “binding intensity score (0-4)” value in test [6] and in test [5] was 4 score 0-4 throughout.

B9: C6 VH / RGD3-11 Vk murine IgG (antibody, V domains shown)
VH: QIQLLQSGPELKKPGETVKISCKASGYTFTDYSMHWVKQAPGKGLKWVARINTETGEPTFADDFRGRFAVSLETSASTAYLQINNLKNEDTATYFCAIFYYGRDSWGQGTTLTVSS
VL: DIVMTQSPSSLAVSAGEKVTMSCKSSQSLLGRGDLGRLKKQKDWYQQKPGQSPRLLIYWASTRESGVPDRFTGSGSGTDFTLTISSVQAEDLAVYYCKQSYNLLSFGAGTKLELKR
notes: Murine IgG, supernatant of 293 cells; CDRL1 swap into the C6D4 murine IgG vector, VH not altered; also called C6RGD3-11
Regarding B9, the binding result in test [2], in test [3] and in test [4] was “no binding (tested: supernatant at 1/10 dilution)” each time. Besides, the “binding intensity score (0-4)” value in test [6] was determined as 1 score 0-4; in test [5], 2 score 0-4.

B10: C6 VH / RGD3-12 Vk murine IgG (antibody, V domains shown)
VH: QIQLLQSGPELKKPGETVKISCKASGYTFTDYSMHWVKQAPGKGLKWVARINTETGEPTFADDFRGRFAVSLETSASTAYLQINNLKNEDTATYFCAIFYYGRDSWGQGTTLTVSS
VL: DIVMTQSPSSLAVSAGEKVTMSCKSSQSLLGRGDLGRLKKQKWYQQKPGQSPRLLIYWASTRESGVPDRFTGSGSGTDFTLTISSVQAEDLAVYYCKQSYNLLSFGAGTKLELKR
notes: Murine IgG, supernatant of 293 cells; CDRL1 swap into the C6D4 murine IgG vector, VH not altered; also called C6RGD3-12
Regarding B10, the binding result in test [1], in test [2] and in test [4] was “no binding (tested: supernatant at 1/10 dilution)” throughout. Further, the “binding intensity score (0-4)” value in test [5] is 2 score 0-4; in test [7], 1 score 0-4.

B11: C6 VH / RGD3-9 Vk murine IgG (antibody, V domains shown)
VH: QIQLLQSGPELKKPGETVKISCKASGYTFTDYSMHWVKQAPGKGLKWVARINTETGEPTFADDFRGRFAVSLETSASTAYLQINNLKNEDTATYFCAIFYYGRDSWGQGTTLTVSS
VL: DIVMTQSPSSLAVSAGEKVTMSCKSSQSLLGRGDLGRLKKQKDHHWYQQKPGQSPRLLIYWASTRESGVPDRFTGSGSGTDFTLTISSVQAEDLAVYYCKQSYNLLSFGAGTKLELKR
notes: Murine IgG, supernatant of 293 cells; CDRL1 swap into the C6D4 murine IgG vector, VH not altered; also called C6RGD3-9
B11: the binding result in test [1], in test [2], in test [3] and in test [4] was “no binding (tested: supernatant at 1/10 dilution)” in each case. Moreover, the “binding intensity score (0-4)” value in test [5] was 3 score 0-4.
